Source: US20090169562A1 (CRUCELL HOLLAND B V, published 2009)

B1: SC06-078 (scFv)
scFv: EVQLVESGAEVKKPGSSVKVSCKASGGTFSSYAISWVRQAPGQGLEWMGGIIPIFGTANYAQKFQGKVTITADESTSTAYMELSSLRSEDTAVYYCARLSPRYYGMDVWGQGTTVTVSSGTGGSGGTGSGTGGSTQSALTQPRSVSGSPGQSVTISCTGTSSDVGGYNYVSWYQQHPGKAPKLMIYGGSERPSGVSNRFSGSKSGNTASLTISGVQAEDEADYYCSSYTSSGTLLFGGGTQLTVL
notes: Vl 136-245); also called single-chain phage antibody SC06-078
B2: SC06-092 (scFv)
scFv: EVQLVESGGGLVQPGRSLRLSCTGSGFTFGDYAMSWFRQAPGKGLEWVGFIRNKAYGGTAEYAASVKDRFIISRDDSKSIAYLQMNSLKTEDTAVYYCVRREYDTGWLDYWGQGTLVTVSSGTGGSGGTGSGTGGSTQSALTQPPSASGSPGQSVTISCTGTSSDVGGYNYVSWYQRHPGKAPKLMIYDVTDRPSGVSNRFSGSKSGNTASLTISGLQAEDEADYYCSSYTSSSTSAVFGGGTKLTVL
notes: Vl 138-248); also called single-chain phage antibody SC06-092
B3: SC06-079 (scFv)
scFv: EVQLVESGGGLVQPGGSLRLSCAASGFTFSSYAMSWVRQAPGKGLEWVSAISGTGGSAYYADSVKGRFTISRDNSKNTVYLQMNSLRAEDTAVYYCAKGHSSGTNWGQGTLVTVSSGTGGSGGTGSGTGGSTSYVLTQPPSASGTPGQRVTISCSGSSSNIGSNFVYWYQQLPGTAPKLLIYRNNQRPSGVPDRFSGSKSGTSASLAISGLRSEDEADYYCAAWDDSLSGVLFGGGTQLTVL
notes: Vl 133-242); also called single-chain phage antibody SC06-079
B4: SC06-241 (scFv)
scFv: EVQLVESGGGLVQPGRSLRLSCAASGFTFRSYAMYWVRQAPGKGLEWLALISHDASKMFYADSVKGRFTISRDNSKNTLSLQMNSLTIEDTAVYYCVRERTGYYGAYWGQGTLVTVSSGTGGSGGTGSGTGGSTDIQMTQSPSSLSASVGDRVTLTCRASQGIGTWLAWYQQKPGKAPKLLIYSASSLQSGVPSRFSGSGSGTDFTLSISNLQPEDFATYYCQQANSFPITFGQGTRLEIK
notes: Vl 135-241); also called single-chain phage antibody SC06-241
B5: SC05-166 (scFv)
scFv: QVQLVQSGAEVKKPGASVKVSCKASGYTFTSYAISWVRQAPGQGLEWMGWISAYNGNTNYARKLQGRVTMTTDTSTSTAYMELRSLRSDDTAVYYCARAGLMFTAWFGELWDHGTKDNWFDPWGQGTLVTVSSGTGGSGGTGSGTGGSTNFMLTQPHSVSESPGKTVTISCTRSSGSIASYYVQWYQQRPGSSPTTVIYEDNQRPSGVPDRFSGSIDSSSNSASLTISGLKTEDEADYYCQSYDSSNQVFGGGTKLTVL
notes: Vl 150-259); also called single-chain phage antibody SC05-166
B6: SC06-089 (scFv)
scFv: EVQLVETGGGLVQPGGSLRLSCAASGFTFSSYSMNWVRQAPGKGLEWVSFISSSSSTIYYADSVKGRFTIARDNAKNSLYLQMNSLRDEDTAVYYCARPVGTGISLFHAFDIWGQGTMVTVSSGTGGSGGTGSGTGGSTQSVLTQPPSVSVAPGQTARITCGGNNIGSKYVHWYQQKPGQAPVLVVYDDSDRPSGIPERFSGSNSGNTATLTISRVEAGDEADFYCQVWDGSSDPVVFGGGTKLTVL
notes: Vl 140-247); also called single-chain phage antibody SC06-089
B7: SC06-195 (scFv, V domains shown)
VH: EVQLVESGGGVVQPGRSLRLSCAASGFTFSSYGMHWVRQAPGKGLEWVAVIWYDGSNKYYADSVKGRFTISRDNSQNTLYLQMNSLRAEDTAVYYCTSYAIAATPGQGTLVTVSS
VL: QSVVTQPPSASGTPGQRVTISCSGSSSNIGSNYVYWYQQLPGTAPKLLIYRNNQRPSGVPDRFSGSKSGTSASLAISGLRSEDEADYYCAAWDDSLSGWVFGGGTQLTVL
B8: SC06-050 (scFv)
scFv: EVQLVESGPEVKKPGASVKVSCEASGYNLDNYGITWVRQAPGQGLEWLGWISAYNAKTEYGQRLQGRVTMTTDTATSTAYLELRSLRSDDTAVYYCARVLGYRGGWYDEGDAFDVWGQGTMVTVSSGTGGSGGTGSGTGGSTDIQLTQSPSFLSASVGDRVTITCRASQGIRSHLAWYQQKAGKAPKLLIYAASTLQSGVPSRFSGSGSGTEFTLTISSLQPDDFAAYYCQQLNTYPITFGQGTRLEIK
notes: Vl 143-249); also called single-chain phage antibody SC06-050
B9: SC06-071 (scFv)
scFv: EVQLVESGGGVVQPGRSLRLSCAASGFTFSSYGMHWVRQAPGKGLEWVAMIWSDGSNKYYADSVKGRFTISRDNSKNTLYLQMNSLRVEDTAVYYCASNYGSGSYWGGFDYWGQGTLVTVSSGTGGSGGTGSGTGGSTQSALTQPASVSGSPGQSITISCTGTSSDVGGYNLVSWYQQHPGKAPKLMIYEGSKRPSGVSNRFFGSKSGDTASLTISGLQAEDEADYYCSSYTTSSTHVFGTGTKVTVL
notes: Vl 139-248); also called single-chain phage antibody SC06-071
B10: SC06-087 (scFv)
scFv: EVQLVESGGGLVKPGGSLRLSCAASGFTFSSNSMNWVRQAPGKGLEWVSFISSSSTYIYYADSVKGRFTISRDNAKNSLYLQMNSLRAEDTAVYYCARESAAGISYDAFDIWGQGTMVTVSSGTGGSGGTGSGTGGSTQSALTQPASVSGSPGQSITISCTGTSSDVGGYKYVSWYQQHPGKAPKLMIYEVSNRPSGVSNRFSGSKSGSTASLTISGLQAEDEADYYCSSYTSSSTLGVFGTGTKVTVL
notes: Vl 139-249); also called single-chain phage antibody SC06-087
B11: SC06-191 (scFv)
scFv: EVQLVESGGGVVQPGRSLRLSCVASEFTFSNYGMHWVRQAPGKGLEWVAVIWYDGSNEDYADSVKGRFTISRDNSKNTVYLHMNSLRAEDTAVYFCTRGQYSSTWFLDYWGQGTLVTVSSGTGGSGGTGSGTGGSTDIQLTQSPSTLSASVGDRVTITCRASQSISSWLAWYQQKPGKAPKLLIYKASSLETGVPSRFSGSGSGTDFTLTISSLQPEDFATYYCQQANSFPLTFGGGTKVDIK
notes: Vl 137-243); also called single-chain phage antibody SC06-191
B12: SC05-157 (scFv)
scFv: EVQLVESGAEVKKPGESLKISCKGSGYSFTNYWIGWVRQMPGKGLEWMGIVYPGDSDTRYSPSFQGQVTISADKSISTAYLQWSSLKASDTAVYYCARRMAVAGSDAFDIWGQGTMVTVSSGTGGSGGTGSGTGGSTQAVLTQPSSASGTPGQTVTISCSGSTSNIGSHNVNWYQHLPGTAPKLLIYINNKRPSGVPDRFSGSKSGSSASLAISGLQSEDEADYYCAAWDDSLRRPVFGGGTQLTVL
notes: Vl 138-247); also called single-chain phage antibody SC05-157
B13: SC06-198 (scFv)
scFv: QLQLQESGPGLVKPSETLSLTCAVSGYSITSGYYWGWVRQPPGKGLEWIGSIYHTGSTYYNPSLKSRVTISVDTSKNQFSLKLNSLTAADTAVYFCASQSPAFDFWGQGTMVTVSSGTGGSGGTGSGTGGSTQSVLTQPPSVSGAPGQRVTISCTGSSSNIGTGYDVHWYQQLPGTAPKLLIYGNNNRPSGVPDRFSGSKSGTSASLAITGLQAEDEADYYCATWDDSLNGWVFGGGTKLTVP
notes: Vl 133-243); also called single-chain phage antibody SC06-198
B14: SC06-077 (scFv)
scFv: QVQLVQSGAEVKKPGSSVKVSCKASGGTFSSYAISWVRQAPGQGLEWMGGIIPIFGTANYAQKFQGRVTITADESTSTAYMELSSLRSEDTAVYYCAREGGVGPAFDIWGQGTMVTVSSGTGGSGGTGSGTGGSTDIQMTQSPDSLAVSLGERATINCKSSQSVLHNSNNKNYLAWYQQKPGQPPKLLIYWASTRESGVPDRFSGSGSGTDFTLTISSLQAEDVAVYYCQQYYGSPYTFGQGTKLEIK
notes: Vl 136-248); also called single-chain phage antibody SC06-077

How the values were obtained:
[1] = target: T1, bovine serum albumin (BSA) (bovine, UniProt P02769 25-607); assay: phage ELISA, BSA coated
T1 construct: Control antigen coated at 1% in PBS (pH 7.4); also called negative control antigen
T1 sequence (P02769 25-607 limits assumed): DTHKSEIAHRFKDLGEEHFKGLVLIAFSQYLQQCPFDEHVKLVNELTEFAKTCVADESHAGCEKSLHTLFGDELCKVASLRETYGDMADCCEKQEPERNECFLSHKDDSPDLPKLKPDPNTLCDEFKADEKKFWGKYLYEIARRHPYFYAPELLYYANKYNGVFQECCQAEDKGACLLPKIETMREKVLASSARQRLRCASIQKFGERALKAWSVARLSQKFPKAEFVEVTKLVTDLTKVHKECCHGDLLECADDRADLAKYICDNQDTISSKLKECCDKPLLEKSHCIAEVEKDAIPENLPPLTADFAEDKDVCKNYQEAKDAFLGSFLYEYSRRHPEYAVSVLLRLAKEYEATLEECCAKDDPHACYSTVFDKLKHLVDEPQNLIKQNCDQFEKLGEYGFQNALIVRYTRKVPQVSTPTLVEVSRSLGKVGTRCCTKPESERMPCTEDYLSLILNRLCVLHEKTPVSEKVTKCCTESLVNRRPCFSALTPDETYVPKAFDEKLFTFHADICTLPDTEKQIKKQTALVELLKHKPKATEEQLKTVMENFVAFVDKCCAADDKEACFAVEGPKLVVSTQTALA
Protocol: (§1) Selected single-chain phage antibodies that were obtained in the screens described above were validated in ELISA for specific enterococcal binding activity, i.e. binding to one or more enterococcal strains prepared as described supra. 2.5×10⁸ bacteria were coated overnight at 4° C. to Maxisorp™ ELISA plates in 50 μl 50 mM carbonate buffer, pH 9.6. As negative controls, the complex antigens 2% ELK and 1% BSA both in PBS (pH 7.4) were coated. Wells were washed in PBS containing 0.1% (v/v) Tween-20 and blocked with 300 μl PBS containing 2% ELK for at least 1 hour at room temperature. The selected single-chain phage antibodies were incubated for 15 minutes in an equal volume of PBS containing 2% ELK to obtain blocked phage antibodies. The plates were emptied and the blocked single-chain phage antibodies were added to the wells. Incubation was allowed to proceed for one hour at room temperature, the plates were washed in PBS containing 0.1% (v/v) Tween-20 and bound phage antibodies were detected using an anti-M13 antibody conjugated to peroxidase. Absorbance at 492 nm was measured using a spectrophotometer. As a control, the procedure was performed simultaneously without single-chain phage antibody and with a negative control single-chain phage antibody directed against West Nile virus envelope protein (SC04-374).

[2] = target: T1, bovine serum albumin (BSA); assay: phage ELISA, 1% BSA coated, anti-M13-HRP detection
Protocol: as §1

Binder | binding result [1] | OD492 nm [2]
B1 | no binding | 0.073 OD492 nm
B2 | no binding | 0.047 OD492 nm
B3 | no binding | 0.048 OD492 nm
B4 | no binding | 0.052 OD492 nm
B5 | – | 0.104 OD492 nm
B6 | no binding | 0.042 OD492 nm
B7 | – | 0.046 OD492 nm
B8 | no binding | 0.043 OD492 nm
B9 | no binding | 0.043 OD492 nm
B10 | no binding | 0.044 OD492 nm
B11 | no binding | 0.044 OD492 nm
B12 | no binding | 0.058 OD492 nm
B13 | no binding | 0.049 OD492 nm
B14 | no binding | 0.044 OD492 nm
